± gives the standard deviation of the averaged measurements.
Test system: ATP
Test: switch fluorescence ratio, 500 uM ATP over buffer (Cy3 cluster intensity, sum of 5 cycles each) (fold (ratio)); higher = stronger signal-on switching upon ATP binding; sequences stand for … in TCGTCGGCAGCGTCAGATGTGTATAAGAGACAGTTTTTTTTTTTTTTTTTTTTTTTTT…TC
Settings: aptamer strand: ATP DNA aptamer (quencher-CACCTGGGGGAGTATTGCGGAGGAAGG + anchor), 100 nM annealed; ATP concentration: 500 uM
Method in brief: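 Clusters with intensities outside 100-1000 RFU were excluded. The remaining Cy3-labelled switching-strand clusters on a modified Illumina MiSeq flow-cell had been annealed to 100 nM quencher-labelled ATP aptamer and imaged in selection buffer, then after 15 min with 500 uM ATP at 22 °C, for five cycles separated by NaOH stripping and re-annealing. The fluorescence ratio, averaged per switch-domain sequence, is each cluster's summed target-cycle Cy3 intensity over its summed buffer-cycle Cy3 intensity.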
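Also: ATP exposure 15 min at 22 °C before imaging.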

Sequence	switch fluorescence ratio
GGTCCTTTGA	1 ± 0.029
GGTCGAAAAC	1.06 ± 0.11
GGTCGAGGGT	1.022 ± 0.0041
GGTCGATTCG	0.961 ± 0.013
GGTCGCAACC	1.04 ± 0.049
GGTCGCTGCG	0.9956 ± 0.0069
GGTCGGGGTC	0.966 ± 0.039
GGTCGGGGTT	1.02 ± 0.034
GGTCGTCAGT	0.986 ± 0.037
GGTCGTTGCT	0.9456 ± 0.0046
GGTCGTTTGC	1.05 ± 0.074
GGTCTAAATT	1 ± 0.039
GGTCTAAGGG	0.976 ± 0.036
GGTCTAAGTG	0.9816 ± 0.0034
GGTCTAATGG	0.998 ± 0.051
GGTCTGGAAG	0.982 ± 0.035
GGTCTTACCA	0.98367 ± 0.00036
GGTCTTCCGC	1.14 ± 0.088
GGTGAAAAAG	1.01 ± 0.011
GGTGAAGAGT	1 ± 0.038
GGTGACACAG	0.988 ± 0.017
GGTGACAGGC	1.04 ± 0.08

Sequence	switch fluorescence ratio
GGTGAGAGTT	0.956 ± 0.0087
GGTGAGATGG	1 ± 0.069
GGTGAGGCTG	0.996 ± 0.015
GGTGAGGGGA	1.01 ± 0.011
GGTGAGGTGC	0.9995 ± 0.0084
GGTGATGGGA	0.976 ± 0.021
GGTGCACCGA	0.9884 ± 0.0063
GGTGCAGTGT	1.05 ± 0.017
GGTGCCGAAT	0.998 ± 0.031
GGTGCGGCTT	1.007 ± 0.0072
GGTGCGGGCG	1.02 ± 0.11
GGTGCGGGGG	0.987 ± 0.093
GGTGCTGAAG	1.01 ± 0.021
GGTGCTGGGG	1.01 ± 0.019
GGTGCTTAAT	1 ± 0.037
GGTGGAAATC	1.09 ± 0.16
GGTGGAGATC	1 ± 0.051
GGTGGAGCGG	1 ± 0.047
GGTGGAGGTT	1.02 ± 0.051
GGTGGATTGC	1.04 ± 0.02
GGTGGCATGT	0.997 ± 0.054
GGTGGCTAGC	1 ± 0.044

Sequence	switch fluorescence ratio
GGTGGCTTAA	0.96 ± 0.024
GGTGGGAAGA	1.02 ± 0.017
GGTGGGCAAT	1.11 ± 0.045
GGTGGGGCTG	0.968 ± 0.03
GGTGGGGGCG	1 ± 0.024
GGTGGGGGCT	0.973 ± 0.034
GGTGGGGTCG	0.991 ± 0.046
GGTGGGGTTG	1 ± 0.04
GGTGGGTGAG	0.9745 ± 0.0094
GGTGGGTGTA	0.957 ± 0.051
GGTGGGTGTT	0.951 ± 0.017
GGTGGGTTGG	0.982 ± 0.034
GGTGGGTTTT	0.99 ± 0.013
GGTGGTCGAC	1.03 ± 0.038
GGTGGTGGAC	0.992 ± 0.037
GGTGGTGGCG	1.01 ± 0.059
GGTGGTTGGG	1.01 ± 0.038
GGTGGTTTTT	1.03 ± 0.099
GGTGTAATTG	1.003 ± 0.0065
GGTGTAGATT	1.07 ± 0.04
GGTGTATGGG	1.01 ± 0.014
GGTGTATTGG	0.991 ± 0.029

Sequence	switch fluorescence ratio
GGTGTCTCCC	1 ± 0.039
GGTGTGCAAG	0.947 ± 0.04
GGTGTGGAAA	1 ± 0.015
GGTGTGGAAT	1.02 ± 0.033
GGTGTGGGGT	0.986 ± 0.02
GGTGTTAGAC	0.976 ± 0.029
GGTGTTAGAT	0.993 ± 0.035
GGTGTTAGGG	1.02 ± 0.027
GGTGTTCGTG	0.985 ± 0.019
GGTGTTCTGC	0.995 ± 0.081
GGTGTTGCGG	0.98 ± 0.038
GGTTAAAATC	1.02 ± 0.023
GGTTAAACGG	1.02 ± 0.013
GGTTAAAGGG	1.07 ± 0.15
GGTTAACCTG	0.9959 ± 0.0062
GGTTAAGGCG	0.9569 ± 0.0079
GGTTAAGTAG	1.004 ± 0.0075
GGTTAAGTGC	1.01 ± 0.029
GGTTAAGTGG	1.01 ± 0.015
